Measured values: patent publication US20060134719A1, “Novel serine protease” (priority 2002, published 2006)
*: point of attachment. AMC = Cc1cc(=O)oc2cc(N*)ccc12; Boc = CC(C)(C)OC(=O)*; OBn = c1ccc(CO*)cc1

Columns and labels:
Format in all cases: biochemical
[1] = target: T1, purified signal-FLAG-ARS-extracellular enzyme after the treatment with trypsin beads (Homo sapiens, UniProt Q7Z410, INS90FVSSFQKTELEASCVGCSVLNYRDGNSSVLVHFQ); assay: Detection of enzyme activity using physiologically active peptides (HPLC); conditions: peptide 0.1 mM in 100 mM ammonium hydrogen carbonate pH 8, 37° C. for 16 hours; versus buffer control
T1 construct: FLAG (N); made in house; host or cells: HEK293-EBNA
T1 sequence (Q7Z410 with tags, fused parts or gaps): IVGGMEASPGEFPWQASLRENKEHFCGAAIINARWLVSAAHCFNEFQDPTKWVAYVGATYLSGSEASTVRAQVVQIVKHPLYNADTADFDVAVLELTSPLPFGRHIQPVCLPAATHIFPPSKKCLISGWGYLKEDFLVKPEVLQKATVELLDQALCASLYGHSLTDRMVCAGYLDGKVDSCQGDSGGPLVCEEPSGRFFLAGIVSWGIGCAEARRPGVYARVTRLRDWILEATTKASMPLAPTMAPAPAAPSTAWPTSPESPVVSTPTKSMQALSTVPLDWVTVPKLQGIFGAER
T1 sequence (Q7Z410 with tags, fused parts or gaps INS90FVSSFQKTELEASCVGCSVLNYRDGNSSVLVHFQ): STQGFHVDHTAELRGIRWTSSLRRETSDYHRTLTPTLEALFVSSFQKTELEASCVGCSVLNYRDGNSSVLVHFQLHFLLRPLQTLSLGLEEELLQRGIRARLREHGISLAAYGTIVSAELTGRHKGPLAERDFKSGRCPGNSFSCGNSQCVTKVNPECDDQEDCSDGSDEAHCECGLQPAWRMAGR
Method: The purified signal-FLAG-ARS-extracellular enzyme after the treatment with trypsin beads in the same manner as in the method of Example 9 was used as an enzyme sample and was mixed with the following physiologically active peptides for reaction at 37° C. for 16 hours, to detect the enzyme activity. As a control without addition of enzyme, an ammonium hydrogen carbonate buffer was used. The peptides were adjusted to 0.1 mM in 100 mM ammonium hydrogen carbonate solution of pH 8. The peptides used were adenocorticotropic hormone (ACTH), angiotensin 1-13, angiotensin 1-14, angiotensin 1-7, angiotensin 1-9, angiotensin 3-7, angiotensin 3-8, angiotensin I, angiotensin II, angiotensin III, A-type natriuretic peptide (ANP), apelin 13, apelin 36, big gastrin, B-type natriuretic peptide 32 (BNP 32), bradykinin, benzoyl-Gly-His-Leu, chymostatin, C-type natriuretic peptide 22 (CNP 22), arginine-deficient bradykinin (Des-Arg-bradykinin), leucine-terminal enkephalin (Leu-enkephalin), methionine-terminal enkephalin (Met-enkephalin), growth hormone (GH), gastric inhibitory peptide (GIP), glucagon-like peptide 1 (GLP-1), glucagon-like peptide 2 (GLP-2), glucagon, growth hormone releasing factor (GRF), insulin, luteinizing hormone releasing hormone (LH-RH), melanin-concentrating hormone (MCH), α-melanocyte stimulating hormone (α-MSH), motilin, neurotensin, neuropeptide Y (NPY), oxytosin, pituitary adenylate cyclase activating polypeptide 38 (PACAP38), prolactin-releasing peptide (PrRP31), pyroglutamic apelin 13 (Pyr-apelin 13), secretin, somatostatin, substance P, [D-Argl, D-Pro2,D-Trp7,9, Leul1]-substance P, [D-Pro2,D-Trp7,9]-substance P, urotensin II, or vasoactive intestinal peptide (VIP) (all from Peptide Institute, Inc.). The cleavage of the substrate peptides was confirmed by analyzing and comparing the reaction of a sample with the enzyme solution to with that of a sample with added ammonium hydrogen carbonate buffer instead of the enzyme, by high-performance liquid chromatography (HPLC) (LC-10AS manufactured by Shimadzu Co., Ltd.).
TSK-gel ODS-80 Ts column, manufactured by TOSOH
Column temperature: 40° C.
Measurement wavelength: 220 nm
Compositions of solvent solutions
Solution A: 10 mM potassium dihydrogen phosphate buffer, pH 7.4 to 8.0
Solution B: mixture solution of 90% acetonitrile: 10% ultra-pure water

[2] = target: T2, enzyme solution treated with trypsin beads (purified signal-FLAG-ARS-extracellular protein) (Homo sapiens, UniProt Q7Z410, INS90FVSSFQKTELEASCVGCSVLNYRDGNSSVLVHFQ); assay: Substrate cleavage activity of purified protein solution treated with trypsin beads; conditions: substrate 400 μM, ammonium hydrogen carbonate buffer, 37° C. for one hour
T2 construct: FLAG (N); made in house; host or cells: HEK293-EBNA
T2 sequence (Q7Z410 with tags, fused parts or gaps): T1 sequence (Q7Z410 with tags, fused parts or gaps)
T2 sequence (Q7Z410 with tags, fused parts or gaps INS90FVSSFQKTELEASCVGCSVLNYRDGNSSVLVHFQ): T1 sequence (Q7Z410 with tags, fused parts or gaps INS90FVSSFQKTELEASCVGCSVLNYRDGNSSVLVHFQ)
Method: By the same method as in Example 9, an enzyme solution treated with trypsin beads was obtained, using the purified protein solution. Then, the substrate cleavage activity of the enzyme solution was measured by the same method as in Example 8. Specifically, synthetic peptide substrates were diluted in ammonium hydrogen carbonate buffer to become a final concentration of 400 μM in a 96-well plate. After the enzyme solution described above was mixed into the resulting diluted substrates, the mixture were incubated at 37° C. for one hour. Subsequently, the fluorescence of AMC released from the synthetic peptide by enzymatic cleavage were measured.

[3] = target: T3, purified protein solution (signal-FLAG-ARS-extracellular protein) (Homo sapiens, UniProt Q7Z410, INS90FVSSFQKTELEASCVGCSVLNYRDGNSSVLVHFQ); assay: Enzyme activity of purified recombinant protein using synthetic peptides; conditions: substrate 200 μM or 400 μM, ammonium hydrogen carbonate buffer, 37° C. for one hour; versus buffer control
T3 construct: made in house; host or cells: HEK293-EBNA
T3 sequence (Q7Z410 with tags, fused parts or gaps INS90FVSSFQKTELEASCVGCSVLNYRDGNSSVLVHFQ): T1 sequence (Q7Z410 with tags, fused parts or gaps INS90FVSSFQKTELEASCVGCSVLNYRDGNSSVLVHFQ)
T3 sequence (Q7Z410 with tags, fused parts or gaps): T1 sequence (Q7Z410 with tags, fused parts or gaps)
Method: Using a cell expressing the signal-FLAG-ARS-extracellular protein, a recombinant protein secreted into the liquid culture of the cell was extracted and purified. Specifically, the transfected HEK293EBNA cells were incubated by the same method as in Example 7 to about 80% confluence, from which the culture medium was then removed. Instead, a culture medium containing 4% serum was added, for further incubation under conditions of 37° C. and a carbon dioxide concentration of 5% for another 4 days. The culture supernatant was recovered 4 days later; filtered through a 0.22-μm filter (Zartor); and adsorbed on an ANTI-FLAG M2-AGAROSE AFFINITY GEL (Sigma) column equilibrated with TBS buffer by a routine method. Subsequently, about 50 ml of the TBS buffer was used for washing the column. Then, 6 ml of […] glycine hydrochloride solution of pH 2.2 was passed through the column to obtain each 1 ml fraction. To the separated fractions, 100 μl of 1 M Tris-HCl of pH 8 was immediately added to adjust the pH. The individual fractions thus obtained were confirmed by Western blotting using an antibody against the FLAG tag added to the N terminus (mouse anti-FLAG monoclonal antibody M2; Sigma). Specifically, the eluted fractions were electrophoresed on SDS/4% to 20% acrylamide gel (Daiichi Pure Chemicals Co., Ltd.) (under reducing conditions) and then transferred on PVDF membrane (Millipore) using a blotting apparatus. After adding Block Ace (DAINIPPON PHARMACEUTICAL CO., LTD.) for blocking to the transferred PVDF membrane, a biotinylated mouse anti-FLAG monoclonal antibody (M2; Sigma) and horseradish peroxidase-labeled streptoavidin (Amersham Pharmacia) were sequentially reacted. After reaction, it was confirmed that which eluted fractions contained the protein, using ECL Western blotting detection system (Amersham Pharmacia).
Using a synthetic peptides which have the C terminus labeled wit MCA (4-methyl-coumaryl-7-amide) by the same method as in Example 8, the cleavage activity of the enzyme purified in Example 10 was detected. Unless otherwise described, the method described in a paper (Yasuoka, S. et al., Am. J. Respir. Cell Mol Biol., Vol. 16, 300-308, 1997) was used. Specifically, using a synthetic peptides (Peptide Institute, Inc.) which have the C terminus labeled with MCA as substrates, the substrates were diluted with ammonium hydrogen carbonate buffer to become a final concentration of 200 μM or 400 μM in a 96-well plate. After the purified protein solution obtained in Example 10 or the ammonium hydrogen carbonate buffer as a control was added to the substrate solutions, the resulting mixtures were incubated at 37° C. for one hour. Subsequently, the fluorescence of AMC (7-amino-4-methyl-coumarin) released from the synthetic peptide by enzymatic cleavage was measured at a wavelength of 460 nm for measurement, using an excitation wavelength of 390 nm with a fluorescent plate reader (SAFIRE manufactured by TECAN). In FIG. 1, the open bar expresses buffer control, while the solid bar expresses the case of using purified protein solution. The first bar represents the case of using Boc-Glu(OBzl)-Ala-Arg-MCA as a substrate; the second bar represents the case of using Boc-Phe-Ser-Arg-MCA as a substrate; the third bar represents the case of using Boc-Leu-Ser-Thr-Arg-MCA as a substrate; the fourth bar represents the case of using Boc-Gln-Arg-Arg-MCA as a substrate; the fifth bar represents the case of using Suc-Ala-Ala-Pro-Phe-MCA as a substrate; the sixth bar represents the case of using Suc-Ala-Pro-Ala-MCA as a substrate; the seventh bar represents the case of using Boc-Glu-Lys-Lys-MCA as a substrate; the eighth bar represents the case of using Boc-Leu-Lys-Arg-MCA as a substrate; the ninth bar represents the case of using Boc-Leu-Gly-Arg-MCA as a substrate; and the tenth bar represents the case of using Boc-Asp(OBzl)-Pro-Arg-MCA as a substrate.

In the case of neuropeptide Y [NPY], the “cleavage of physiologically active peptide by enzyme sample (HPLC)” value [1] is reported as “selectively cleaved”.
With Boc-Leu-Gly-Arg-{AMC} the “cleavage of synthetic peptide by enzyme solution treated with trypsin beads (fluorescence of released AMC)” value [2] was “cleaved” and the “cleavage of synthetic peptide by purified protein solution (fluorescence of released AMC)” value [3] was “cleaved”.
With “Boc-Leu-Ser-Thr-Arg-MCA (Boc-LSTR-{AMC}; SMILES Cc1cc(=O)oc2cc(NC(=O)[C@H](CCCNC(=N)N)NC(=O)[C@@H](NC(=O)[C@H](CO)NC(=O)[C@H](CC(C)C)NC(=O)OC(C)(C)C)[C@@H](C)O)ccc12) [synthetic peptide substrate labeled with MCA at the C terminus]” the “cleavage of synthetic peptide by enzyme solution treated with trypsin beads (fluorescence of released AMC)” value [2] was “cleaved” and the “cleavage of synthetic peptide by purified protein solution (fluorescence of released AMC)” value [3] was “cleaved”.
With vasoactive intestinal peptide [VIP] the “cleavage of physiologically active peptide by enzyme sample (HPLC)” value [1] was “selectively cleaved”.
A-type natriuretic peptide [ANP] was tested, and the “cleavage of physiologically active peptide by enzyme sample (HPLC)” value [1] was “selectively cleaved”.
For Boc-Leu-Lys-Arg-{AMC}, the “cleavage of synthetic peptide by enzyme solution treated with trypsin beads (fluorescence of released AMC)” value [2] was “cleaved” and the “cleavage of synthetic peptide by purified protein solution (fluorescence of released AMC)” value [3] was “cleaved”.
For melanin-concentrating hormone [MCH], the “cleavage of physiologically active peptide by enzyme sample (HPLC)” value [1] was “selectively cleaved”.
For Boc-Asp(OBn)-Pro-Arg-{AMC}, the “cleavage of synthetic peptide by enzyme solution treated with trypsin beads (fluorescence of released AMC)” value [2] was “cleaved” and the “cleavage of synthetic peptide by purified protein solution (fluorescence of released AMC)” value [3] was “cleaved”.
With “α-melanocyte stimulating hormone [α-MSH]” the “cleavage of physiologically active peptide by enzyme sample (HPLC)” value [1] was “selectively cleaved”.
In the case of C-type natriuretic peptide 22 [CNP], the “cleavage of physiologically active peptide by enzyme sample (HPLC)” value [1] is reported as “selectively cleaved”.
For Boc-Glu-Lys-Lys-{AMC}, the “cleavage of synthetic peptide by enzyme solution treated with trypsin beads (fluorescence of released AMC)” value [2] was “cleaved” and the “cleavage of synthetic peptide by purified protein solution (fluorescence of released AMC)” value [3] was “cleaved”.
